Measured values reported in patent US20260125454A1 (SHANGHAI JUNSHI BIOSCIENCES, published 2026).

T1: Biotin-huCGRPaSA (human, not fully specified; biotin (position not given))
T1 construct: exact construct ('aSA') not explained; also called Biotin CGRPaSA; full-length (1-37) CGRP
T1 peptide: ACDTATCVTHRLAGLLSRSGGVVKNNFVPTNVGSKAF


Legend:
[1] = biological target: CGRP antigen; test: cell-based or functional assay
[2] = biological target: T1, Biotin-huCGRPaSA; test: ELISA, supernatant; relative to chimeric C245
Procedure, shortened: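 Antibodies, including reference chimeric C245, titrated 2.5-fold from 1000 ng/mL and incubated 60 min at 37°C on wells coated with 1.0 μg/mL biotin-CGRPaSA and blocked with 2% BSA. Bound IgG detected with HRP anti-human Fc antibody and TMB, acid-stopped, absorbance 450/620 nm.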

| IC50 [1] [µg/mL] | relative activity (%) vs C245 [1] [%] | Relative binding activity, % [2] [%] | relative activity (%) vs Ref(TEVA) [1] [%] | Binder |
| --- | --- | --- | --- | --- |
| 0.0284 | 91 | 68 | – | hu231 (antibody, human IgG4 S228P, kappa, V domains shown) VH: QVQLVQSGSELKKPGASVKVSCKASGYTFTGYTMNWVRQAPGQGLEWMGLINPYIGNTHYNQKFKDRFVFSVDRSSSTAYLQISSLKAEDTAVYYCARELDSGFDYWGQGTLVTVSS VL: DVVMTQTPLSLSVTPGQPASISCRSSQNIVHSNGDTYLEWYLQKPGQSPQLLIYKVSNRFSGVPDRFSGSGSGTDFTLKISRVEAEDVGVYYCYQGSHVPWTFGQGTKLEIKR |
| 0.044 | 59 | 70 | – | hu232 (antibody, V domains shown, 3C1 HC-3/3C1 LC-3) VH: QVQLVQSGSELKKPGASVKVSCKASGYTFTGYTMNWVRQAPGQGLEWMGLINPYIGNTHYNQKFKDRFVFSVDRSSSTAYLQISSLKAEDTAVYYCARELDSGFDYWGQGTLVTVSS VL: DVVMTQSPDSLAVSLGERATINCRSSQNIVHSNGDTYLEWYQQKPGQPPKLLIYKVSNRFSGVPDRFSGSGSGTDFTLTISSLQAEDVAVYYCYQGSHVPWTFGQGTKLEIK |
| 0.0877 | 30 | 68 | – | hu233 (antibody, V domains shown, 3C1 HC-3/3C1 LC-4) VH: QVQLVQSGSELKKPGASVKVSCKASGYTFTGYTMNWVRQAPGQGLEWMGLINPYIGNTHYNQKFKDRFVFSVDRSSSTAYLQISSLKAEDTAVYYCARELDSGFDYWGQGTLVTVSS VL: DVVMTQSPDSLAVSLGERATINCRSSQNIVHSNADTYLEWYQQKPGQPPKLLIYKVSNRFSGVPDRFSGSGSGTDFTLTISSLQAEDVAVYYCYQGSHVPWTFGQGTKLEIK |
| 0.0725 | – | 139 | 50 | hu38 (antibody, V domains shown, 1F5 HC-1/3H10 LC2-1) VH: QVQLVQSGAEVKKPGASVKVSCKASGYTFIDFNMHWVRQAPGQRLEWMGYIYPYNGDVVYNQNFTNRVTLTVDTSSSTAYMELSSLRSEDTAVYYCAREGLGGYWGQGTLVTVSS VL: DIVLTQSPDSLAVSLGERATINCKASQNIDYGGYSYMNWYQQKPGQPPKVLIYSVFNLESGVPDRFSGSGSGTDFTLTISSLQAEDVAVYYCQQSNEAPYTFGQGTKLEIK |

The next lines start with the binder.

| Binder | IC50 [1] [µg/mL] | relative activity (%) vs C245 [1] [%] | Relative binding activity, % [2] [%] | relative activity (%) vs Ref(TEVA) [1] [%] |
| --- | --- | --- | --- | --- |
| hu225 (antibody, V domains shown, 3C1 HC-1/3C1 LC-4) VH: QVQLVQSGAEVKKPGASVKVSCKASGYSFTGYTMNWVRQAPGQRLEWMGLINPYIGNTHYNQKFKDRVTFTVDRSSSTAYMELSSLRSEDTAVYYCARELDSGFDYWGQGTLVTVSS VL: DVVMTQSPDSLAVSLGERATINCRSSQNIVHSNADTYLEWYQQKPGQPPKLLIYKVSNRFSGVPDRFSGSGSGTDFTLTISSLQAEDVAVYYCYQGSHVPWTFGQGTKLEIK | 0.185 | 10 | 52 | – |
| hu237 (antibody, V domains shown, 3C1 HC-4/3C1 LC-4) VH: QVQLVQSGAEVKKPGASVKVSCKASGYTFTGYTMNWVRQAPGQGLEWMGLINPYIGNTHYNQKFKDRVTFTVDRSSSTAYMELSRLRSDDTAVYYCARELDSGFDYWGQGTLVTVSS VL: DVVMTQSPDSLAVSLGERATINCRSSQNIVHSNADTYLEWYQQKPGQPPKLLIYKVSNRFSGVPDRFSGSGSGTDFTLTISSLQAEDVAVYYCYQGSHVPWTFGQGTKLEIK | 0.129 | 22 | 65 | – |
| hu236 (antibody, V domains shown, 3C1 HC-4/3C1 LC-3) VH: QVQLVQSGAEVKKPGASVKVSCKASGYTFTGYTMNWVRQAPGQGLEWMGLINPYIGNTHYNQKFKDRVTFTVDRSSSTAYMELSRLRSDDTAVYYCARELDSGFDYWGQGTLVTVSS VL: DVVMTQSPDSLAVSLGERATINCRSSQNIVHSNGDTYLEWYQQKPGQPPKLLIYKVSNRFSGVPDRFSGSGSGTDFTLTISSLQAEDVAVYYCYQGSHVPWTFGQGTKLEIK | 0.0514 | 55 | 68 | – |
